Patent US20090281024A1

What was measured:
[1] = molecular target: LRP2 CR89 Y1042W V1047D (human) (UniProt P98164); assay: solid-phase assay, coated CR protein
[2] = molecular target: LRP2 CR89 Y1042W V1047D R1088D (human) (UniProt P98164); assay: solid-phase assay, coated CR protein
[3] = molecular target: MAT CR12 (matriptase CR pair 1-2) (human) (UniProt Q9Y5Y6); assay: relative binding signal under isomolar conditions on MAT CR12 (heading of the figure); solid-phase binding assay
MAT CR12 (matriptase CR pair 1-2) (human), sequence (Q9Y5Y6 452-524 limits assumed): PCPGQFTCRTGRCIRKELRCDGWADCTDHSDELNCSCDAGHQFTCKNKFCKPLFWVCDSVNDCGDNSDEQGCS

LRP2 CR89 Y1042W V1047D (human), sequence (P98164 1022-1105 Y1043W/V1048D limits assumed): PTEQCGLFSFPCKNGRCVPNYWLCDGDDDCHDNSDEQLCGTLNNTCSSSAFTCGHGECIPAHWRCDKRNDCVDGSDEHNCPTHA
RAP d3 (wild-type third domain of the receptor-associated protein), sequence (P30533 235-353): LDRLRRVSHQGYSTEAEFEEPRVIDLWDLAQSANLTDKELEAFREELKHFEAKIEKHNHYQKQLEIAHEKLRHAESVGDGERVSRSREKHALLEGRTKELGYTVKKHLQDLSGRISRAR

Row | Substance | % max bind [1] [%] | % max bind [2] [%] | fnctn (relative binding signal under isomolar conditions) [3]
1 | RAP d3 (wild-type third domain of the receptor-associated protein) (from UniProt P30533 235-353) (ligand) | 11 | 15 | 
2 | MatRAP1 N-42 (from UniProt P30533 277-353) (designed binder) |  |  | 0.65
